Experimental findings from paper doi:10.1101/2020.10.14.340026 (bioRxiv, 2020) are described below.

To fix the notation:
B1: BDBV-289 mAb (antibody, V domains shown)
VH: QVQLVQSGAEVKKPGSSVKVSCKASGATFGSDTVTWVRQAPGQGLEWMGGIIPFFGEANYAQRFQGRVTITADKSTNTAYMELSSLRSEDTAVYFCARQINEMATFGEIHYYTYMDVWGQGTLVTVSS
VL: GSELTQDPAVSVALGQTVRITCQGDSLRNYYASWYQQKPRQAPVLVFYGKNNRPSGIPDRFSGSSSGNTASLTISGAQAEDEADYYCNSRDSSSNHLVFGGGTKLTVL
notes: source: HEK-293F, transiently transfected, purified (mAb Select, SEC)
B2: BDBV-43 mAb (antibody, V domains shown)
VH: QVQLVQSGAEVKKPGSSVKVSCRASGDSFSRKYGISWVRQAPGQGFEWMGTIMPIVGLTTSAQKFQGRVTITADKSTSTAHMELNSLTSEDTAIYYCARDEIIGARPHWFDSWGQGTLVTVSS
VL: EIVMTQSPAIMSVSPGKRATLSCRASQSVSSNLAWYQRKPGQAPRLLIYGSSTRATGIPARFSGSGSGTEFTLTISSLQSEDFAVYYCLQYYNWPRTFGQGTKVEIK
notes: as for B1
B3: EBOV-237 mAb (antibody, V domains shown)
VH: QVQLQESGPGLVKPSGTLSLTCAVSGGSISNGIWWSWVRQPPGKGLEWIGEIYHSGSTNYSPSLKSRVTISLDKSKNQFSLKLNSVTAADTAVYYCARAPSQFDFSDWLVPQGAMFRGHYIDYWGQGTLVTVSS
VL: not shown
notes: IgG1; source: ExpiCHO, transiently transfected, purified (HiTrap MabSelect Sure)
B4: EBOV-296 mAb (antibody, V domains shown)
VH: QVQLVESGPGLVKPSQTLSLICTVSGGSISSGDFYWSWIRQPPGKGLEWIGFFYYSGITYYNPSLKSRVSISRDTSTNQFSLKLRSVTAADTAVYYCARVRGGRITLGQGDMYYYSGMDVWGQGTLVTVSS
VL: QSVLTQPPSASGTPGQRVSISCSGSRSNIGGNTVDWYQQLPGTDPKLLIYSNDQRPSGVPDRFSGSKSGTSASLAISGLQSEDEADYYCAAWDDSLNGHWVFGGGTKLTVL
B5: EBOV-437 mAb (antibody, V domains shown)
VH: QVQLVQSGAEVKKPGSSVKVSCKASGGTFSRDIFSWVRQAPGQGLEWMGGIIPIFGTANYAQKFQGRVTITADKSTSTVFMELSGLRSEDTAVYFCARGPPLRGERSWFGESEKYDYFYMDVWGKGTTVTVSS
VL: QIVLTQSPGTLSLSPGERATLSCRASQSVSNSYLAWYQQKPGQAPRLLIYGASSRATGIPDRFSGSGSGTDFTLSISRLEPEDFAVYYCQQYGTSPCTFGQGTKLEIK
notes: as for B3
B6: BDBV-329 mAb (antibody, V domains shown)
VH: QVQLVQSGAEVKKPGSSVKVSCKASGGTFDTYAISWVRQAPGQGLEWMGGIIPVLGIVDYAQKFQGRVTITAAKFTNIAYMELSSLRSEDAAVYYCARGLRSLSPRGQEGPTPAPGWRRAQYHYYYMDVWGTGTLVTVSS
VL: EIVMTQSPGTLSLSPGERATLSCRASQSVSSNYLAWYQQKPGQAPRLLIYGASSRATGIPDRFSGSGSGPDFTLTISRLEPEDFAVYYCQQYGSSPGTFGGGTKVEIK
notes: as for B3
B7: EBOV-442 mAb (antibody, V domains shown)
VH: EVQLVESGGGLVKPGGSLRLSCTGSGGTGFTFKYAGMSWVRQAPGKGPEWIGRIKSRIDGGTTDYAAPVKDRFIVSRDDSRNTLYLQMNSLKTEDTAVYYCATGSGKGPSASFGESYYYYDFINVWGKGTTVTVSS
VL: ESVLTQSPGTLSLSPGERATLSCRASQSISRKYLAWYQQKPGQAPRLLIYGSSSRATGIPDRFSGSGSGTDFTLTISRLEPEDFAVYYCHQYESSPWTFGQGTKVEIK
notes: as for B3
B8: EBOV-548 mAb (antibody, V domains shown)
VH: QVQVEESGGGVVQPGGSLRLSCAASGFMFSNYGMHWVRQAPGKGLEWMAFIRYDDSKKFYADSVKGRFTISRDNSKNTLYLQMNSLRAEDTALYYCAKELLQVYTSAWGEGHSYYYALDVWGLGTAVTVSS
VL: DIQMTQSPSSVSASVGDRVTITCRASQDISNWLAWYQQKPGKAPELLIYTASILQSGVSSRFSGSGSGTDFTLTISSLQPEDSATYYCQQGKSFPYTFGQGTKLEIK
B9: EBOV-293 mAb (antibody, V domains shown)
VH: QVQLVQSGAEVKKPGSSVKVSCKASGGTFIDYTYNWVRQAPGQGLVWMGRVVPGLGLSSYAQQFEDRVTITAAKSTSTVYMELRGLTSEDTAMYYCARDTASFGWLPFAFWGQGTLVTVSS
VL: QTVMTQSPGTLSLSPGERATLSCGVSQSISSTYFAWYQQKVGQAPRLLIYGASNRASGIPDRFSGSASGTDFTLTISRVEPEDFAVYYCQQYGSSPTFGQGTRLEIK
B10: EBOV-515 mAb, Alexa Fluor 647-labeled (antibody, V domains shown)
VH: QVQLQESGPGLVKPSQTLSLTCTVSGGSINSAGYYWTWIRQHPGKGLEWIGYIDYTGRTYYNPSLESRVIISIDTSKNHFSLRLTSVSAADTAVYYCARESSWVSELGRDNWGQGTLVTVSS
VL: EIVMTQSPATLPVSPGEGATLSCRASQSVFTNLAWYQQKPGQAPRLLIYDASTRATGIPARFSGSGSGTEFTLTISSLQSEDFAVYYCQQYNNWPRTYGQGTRVEVK

One experiment concerns the target T1, EBOV sGP (Mayinga) (Zaire ebolavirus (strain Mayinga-76) …, UniProt P60170).
T1 construct: source: HEK-293F, transiently transfected, purified (Strep-Tactin, SEC S200 increase)
Kind of experiment: ELISA. The conditions noted are these: both partners purified. On the technique in general: ELISA stands for enzyme-linked immunosorbent assay.
As for B1, the binding result is on record as “binds”.

B2: the binding result is listed as “binds”.

As for B3, the binding result was “binds”.

Take B4: the binding result is “binds”.

Consider B5, for which the binding result is “binds”.

For B6, the binding result is recorded as “binds”.

For B7, the binding result is “binds”.

Consider B8, for which the binding result is “binds”.

For the molecule B9, the binding result is reported as “binds”.

For another experiment, the target named is Cleaved EBOV GP (GPCL) displayed on Jurkat cells (Zaire ebolavirus, Makona (A0A0E3TM45), UniProt A0A0E3TM45, strain). Kind of experiment: flow cytometry on cells. The conditions noted are these: one partner purified. (In general: In flow cytometry, cells or beads pass a laser one at a time.)
Take B10: the binding result is recorded as “binds”.

On to B7, for which the binding result was “binds”.
